In the supplement of paper PMC10126150 one finds switch fluorescence ratio data, which are given here for 78 sequences.

± gives the standard deviation of the averaged measurements.
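Further: ATP exposure 15 min at 22 °C before imaging.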

This series concerns ATP. In words: switch fluorescence ratio, 500 uM ATP over buffer (Cy3 cluster intensity, sum of 5 cycles each) (fold (ratio)); higher = stronger signal-on switching upon ATP binding; sequences stand for … in TCGTCGGCAGCGTCAGATGTGTATAAGAGACAGTTTTTTTTTTTTTTTTTTTTTTTTT…TC. Particulars: aptamer strand: ATP DNA aptamer (quencher-CACCTGGGGGAGTATTGCGGAGGAAGG + anchor), 100 nM annealed; ATP concentration: 500 uM. The method, boiled down:
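Imaging in selection buffer was followed by imaging after 15 min with 500 uM ATP at 22 °C, for Cy3-labelled switching-strand clusters annealed to 100 nM quencher-labelled ATP aptamer on a modified Illumina MiSeq flow-cell. Five of these buffer/ATP cycles ran, separated by NaOH stripping and re-annealing. The fluorescence ratio per cluster is summed target-cycle over summed buffer-cycle Cy3 intensity, averaged per switch-domain sequence; clusters outside 100-1000 RFU were removed.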
As to TTGAAAGGAG, the switch fluorescence ratio stood at 1 ± 0.026.

For ATGTTAGGGA, the switch fluorescence ratio worked out at 1.034 ± 0.0052.

TTGGAGTTCG: the switch fluorescence ratio was found to be 0.982 ± 0.013.

Consider AACCTATTCT, for which the switch fluorescence ratio is 1.15 ± 0.17.

With ACGGTAAGGA, the switch fluorescence ratio came out at 1.098 ± 0.0091.

With AGGCTGGGGA, the switch fluorescence ratio was determined as 1.01 ± 0.057.

On to CTAGCCGGGG, for which the switch fluorescence ratio came to 1.01 ± 0.031.

With GGTAGATAGT, the switch fluorescence ratio turned out to be 0.979 ± 0.029.

Take GCTGCTTAGG: the switch fluorescence ratio was determined as 0.974 ± 0.018.

Take GTGGGGGTGC: the switch fluorescence ratio came to 0.987 ± 0.033.

As to TTAGTGATGT, the switch fluorescence ratio was 1.03 ± 0.0097.

In the case of CGGGACTGTT, the switch fluorescence ratio stood at 1.02 ± 0.059.

For GCTGTTCACG, the switch fluorescence ratio came out at 1.01 ± 0.014.

As to TTTTATTCTG, the switch fluorescence ratio is 1.01 ± 0.038.

With TCGTTCGCGG, the switch fluorescence ratio came to 1.12 ± 0.015.

TCGGACTATA: the switch fluorescence ratio was 1.06 ± 0.033.

Consider TGGTGGGTGG, for which the switch fluorescence ratio amounted to 1.03 ± 0.058.

As to CAGGGTTGTT, the switch fluorescence ratio is 0.992 ± 0.026.

With GTTGCAGTCA, the switch fluorescence ratio turned out to be 0.949 ± 0.042.

On to TTATGGATAA, for which the switch fluorescence ratio is 1 ± 0.018.

Take TATTGCTACT: the switch fluorescence ratio came out at 1.0114 ± 6.4e-05.

Take TTATTTGGGC: the switch fluorescence ratio was 1.06 ± 0.081.

For the sequence CTTGGATGTT, the switch fluorescence ratio is 0.987 ± 0.024.

As for ATTTGACGTT, the switch fluorescence ratio turned out to be 1.003 ± 0.006.

CTTCGTACGA: the switch fluorescence ratio turned out to be 1.03 ± 0.043.

As to TTAGGGCTTG, the switch fluorescence ratio turned out to be 0.992 ± 0.039.

As for TAGTGAGGGG, the switch fluorescence ratio turned out to be 0.979 ± 0.031.

On to TGCGTGGTGG, for which the switch fluorescence ratio was determined as 1.03 ± 0.019.

Take AGGTTTTTAA: the switch fluorescence ratio was determined as 1.01 ± 0.043.

Take TTTACGGATG: the switch fluorescence ratio came to 1.044 ± 0.0036.

TCAAGGCGAT: the switch fluorescence ratio stood at 1.09 ± 0.042.

Turning to AAGGGTTCAC, the switch fluorescence ratio was found to be 0.9963 ± 0.0031.

For GTCATTTTGG, the switch fluorescence ratio is 1.03 ± 0.036.

With AGGTAATATG, the switch fluorescence ratio turned out to be 0.9867 ± 0.0081.

Take AAGGCGGCAC: the switch fluorescence ratio was determined as 1.05 ± 0.02.

ATCTGGTAAT: the switch fluorescence ratio came to 1.005 ± 0.0031.

Take CCACTGGTGT: the switch fluorescence ratio was found to be 3.92 ± 0.56.

Turning to GTAGTCCAGG, the switch fluorescence ratio came to 1.27 ± 0.082.

GTTAGTAGGT: the switch fluorescence ratio came out at 0.994 ± 0.021.

Regarding TCGGGGTTTG, the switch fluorescence ratio is 1 ± 0.016.

Turning to TTTAGATAAC, the switch fluorescence ratio is 1.02 ± 0.044.

CTTACGGGAA: the switch fluorescence ratio came to 1.15 ± 0.1.

With TACGCCTGGT, the switch fluorescence ratio was found to be 1.034 ± 0.0071.

In the case of AGAAAGACTT, the switch fluorescence ratio was found to be 1.04 ± 0.047.

For the sequence TGGATTAGGG, the switch fluorescence ratio is 1 ± 0.023.

In the case of GAATTGGTTG, the switch fluorescence ratio is 1 ± 0.04.

Regarding TGGGGTTCTA, the switch fluorescence ratio is 0.992 ± 0.026.

In the case of CACCTAAAAT, the switch fluorescence ratio is 1.03 ± 0.037.

Take TCGGTGATTG: the switch fluorescence ratio is 0.991 ± 0.016.

As for ACATTGATAT, the switch fluorescence ratio was 1.01 ± 0.011.

Take TTGCTGTGTC: the switch fluorescence ratio worked out at 1.07 ± 0.028.

AAGGAATACA: the switch fluorescence ratio is 1.07 ± 0.041.

Regarding CCCGGGGGGA, the switch fluorescence ratio was 1.55 ± 0.7.

Regarding AGGGGGTTTC, the switch fluorescence ratio came out at 1 ± 0.022.

Turning to GGGGAGGCTG, the switch fluorescence ratio is 0.971 ± 0.039.

For the sequence AGCGACGGGA, the switch fluorescence ratio is 1.1 ± 0.048.

On to TCACGGGGCT, for which the switch fluorescence ratio amounted to 1.01 ± 0.068.

Turning to GGTGTGCTTT, the switch fluorescence ratio was determined as 1.02 ± 0.025.

On to TCAGTTTAGA, for which the switch fluorescence ratio came to 1 ± 0.011.

In the case of AAGTGACAGG, the switch fluorescence ratio came out at 1 ± 0.022.

As for TCAGACACGG, the switch fluorescence ratio was 1.04 ± 0.039.

In the case of TTGGGTGTTA, the switch fluorescence ratio came out at 0.9907 ± 0.0021.

Regarding ATGTGCAGGC, the switch fluorescence ratio is 0.969 ± 0.026.

With AGTCTTTTGT, the switch fluorescence ratio was 0.997 ± 0.026.

In the case of GGTTGACTCT, the switch fluorescence ratio amounted to 1.01 ± 0.029.

In the case of GTAAGAGCGT, the switch fluorescence ratio was determined as 0.996 ± 0.041.

As to CGGTTGATGG, the switch fluorescence ratio came out at 0.969 ± 0.074.

TGGGGATCTG: the switch fluorescence ratio amounted to 0.985 ± 0.03.

Regarding GATTTGATGG, the switch fluorescence ratio was 0.987 ± 0.045.

As to CTAGATGTAT, the switch fluorescence ratio came to 0.985 ± 0.017.

On to TATGTTGAGG, for which the switch fluorescence ratio came to 1 ± 0.035.

In the case of ATTCACTCGT, the switch fluorescence ratio was 1.11 ± 0.13.

With TAGGTATTGA, the switch fluorescence ratio was found to be 0.987 ± 0.024.

Regarding TTGAAATGTG, the switch fluorescence ratio was 1.01 ± 0.017.

ATAATCTCTA: the switch fluorescence ratio was 0.9907 ± 0.0094.

Regarding AATCGGGTGT, the switch fluorescence ratio is 1.11 ± 0.047.

Take AGAAAGAGGA: the switch fluorescence ratio came out at 0.987 ± 0.023.

Regarding AAAACGGCGT, the switch fluorescence ratio came out at 0.959 ± 0.01.
